PMC7582164, “The soluble neurexin-1β ectodomain causes calcium influx and augments dendritic outgrowth and synaptic transmission” (Scientific Reports, 2020)
Values belong to the molecule of their own block, whether it stands above or below them. No end group written: not given here.

Columns and labels:
[1] = molecular target: Recombinant neuroligin-1 (NL-1) (UniProt Q62765); experiment: SPR; Biacore 2000; NL-1 immobilised on a CM4 chip by amine coupling (~2800 RU); analyte NX-1β Fc chimera 0.05-0.8 µM or Neurexide 1.25-20 µM; 25 °C; HBS-P (10 mM HEPES pH 7.4, 150 mM NaCl, 0.005% P20) with 3 mM CaCl2; 30 µl/min; 1:1 Langmuir fit
Chain of Recombinant neuroligin-1 (NL-1) (UniProt Q62765) (Q62765 46-697): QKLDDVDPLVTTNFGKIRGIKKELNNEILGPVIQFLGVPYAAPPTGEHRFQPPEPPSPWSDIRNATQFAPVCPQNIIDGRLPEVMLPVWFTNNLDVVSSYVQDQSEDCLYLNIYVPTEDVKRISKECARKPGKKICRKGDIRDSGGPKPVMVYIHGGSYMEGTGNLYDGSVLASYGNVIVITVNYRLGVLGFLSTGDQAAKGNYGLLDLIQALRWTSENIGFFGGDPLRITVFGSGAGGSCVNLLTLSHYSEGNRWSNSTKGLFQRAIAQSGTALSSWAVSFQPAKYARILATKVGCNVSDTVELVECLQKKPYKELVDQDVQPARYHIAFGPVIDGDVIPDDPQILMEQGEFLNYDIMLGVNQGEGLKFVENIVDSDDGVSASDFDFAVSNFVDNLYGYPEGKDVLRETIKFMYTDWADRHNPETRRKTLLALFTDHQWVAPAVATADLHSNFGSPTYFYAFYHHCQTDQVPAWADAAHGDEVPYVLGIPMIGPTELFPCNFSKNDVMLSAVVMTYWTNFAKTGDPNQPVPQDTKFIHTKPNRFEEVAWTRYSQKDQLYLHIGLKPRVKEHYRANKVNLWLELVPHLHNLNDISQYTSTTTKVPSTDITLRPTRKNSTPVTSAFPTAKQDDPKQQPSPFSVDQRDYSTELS

[2] = molecular target: T1, Recombinant neuroligin-1 (NL-1) (UniProt Q62765 46-697); experiment: as above; conditions: both partners purified
T1 construct: neuroligin-1, recombinant; source: bought: R&D Systems (cat# 4340-NL)
T1 sequence (Q62765 46-697): as above

Kd [1]: 32 nM
Molecule: Human neurexin-1β Fc-chimera (NX-1β ectodomain lacking splice site 4) (from UniProt P58400 51-396) (Fc fusion)

Kd [2]: 480 nM
B1: Neurexide (synthetic 10-mer peptide modeled after the NX-1β binding site for NL-1), tetramer on a lysine backbone (peptide)
peptide: ARPSTRADRA
modifications: also: tetramer coupled to a lysine backbone
notes: The peptide was made as a C-terminally amidated monomer, a dimer and a tetramer; also called Neurexin peptide; source: synthetic peptide
